Measured values as given in patent US20070042500A1, “Direct observation of molecular modifications in biological test systems by measuring flourescence lifetime” (Bayer Healthcare AG, priority 2003, published 2007).

Experiments:
PDE1b phosphodiesterase = PDE1b phosphodiesterase (Homo sapiens, UniProt Q01064); experiment: PDE reaction with Fl-cAMP followed directly by fluorescence lifetime; assay type: biochemical; conditions: without inhibitor
Protocol: Like the phosphatases and kinases discussed above, phosphodiesterases are a very important class of targets, inter alia in the fields of indication of cardiovascular, metabolic disorders, central nervous system, cancer and respiratory diseases. It is therefore of great interest to have a generic assay format which can measure the conversion of cAMP or cGMP to the respective monophosphate. Usually detection enzyme cascades are used. […] In the experiment, first 1 μM Fl-cAMP and a 1:360 dilution of PDE1b were mixed in the presence of different concentrations of the inhibitor BAY 383045. The kinetics of the enzyme reaction was measured by means of an Ultra FLT prototype (Tecan) at room temperature.

[1] = FLT of potential reactant and product of the TAFI enzyme reaction; assay type: physicochemical; conditions: 60 nM; independent of pH (6-9.5) and NaCl concentration (200 mM, 2 M)
From the text: The enzyme thrombin activated with fibrinolysis inhibitor (TAFI) is a carboxypeptidase which plays an important part in thromboses. TAFI cleaves the arginine of the peptide sequence IFTR. This reaction may be detected by either mass spectrometric or chromatographic methods. Both methods are not suitable for high throughput substance testing. Alternatively, more or less complex enzyme cascades or chemical reactions may be used which generate a measurable absorption, fluorescence or luminescence signal. No method has been described to date with which the TAFI reaction can be measured directly and which is suitable at the same time for higher throughput. Therefore, the fluorescence lifetimes of the conjugates FJ23 and FJ24 which both carry a fluorescent dye excitable at 630 nm (Evoblue30, Mobitec) and which differ only in the FJ24 conjugate lacking the C-terminal arginine were measured. FJ23 is a potential reactant of the TAFI reaction, while FJ24 would be the corresponding reaction product. The FJ23 and FJ24 conjugates were dissolved at a concentration of 60 nM in various buffers with pH values of 6, 7, 8 and 9.5, and in the presence of 200 mM and 2 M NaCl.

[2] = FLT difference between phosphorylated and non-phosphorylated fluoresceine-kemptide under various pH/NaCl conditions; assay type: physicochemical; conditions: 50 nM; pH 6.0 to 9.5 buffers
Protocol: 0.1 M NaOH, 50 mM borate buffer pH 9.5, 50 mM HEPES buffer pH 8.0, 50 mM HEPES buffer pH 7.0, 50 mM MES buffer pH 6.0, 200 mM NaCl (low)
The quality of an FLT assay improves with increasing differences of the fluorescence lifetimes of reactant and product. An optimally large FLT difference will not be measured immediately in every case. On the other hand, it should be possible to increase the FLT difference initially obtained, for example by selecting and combining various parameters such as, for example, fluorescent dye, spacer molecule between dye and substrate molecule, or polarity, pH, ionic strength of the solvent or other additive. […] In each case 50 nM Fl-P-kemptide and Fl-kemptide were dissolved in the solutions described under Material, and their FLTs were measured by means of a modified Nanoscan instrument (IOM GmbH, Berlin, Germany) which transferred the signals to a transient recorder. 16 decay curves were averaged for each data point. The descending part of the logarithmic-scale curve was evaluated by means of linear regression and the negative slope was mathematically converted into FLT.

[3] = Fluorescence lifetime (FLT) of phosphorylated vs non-phosphorylated fluoresceine-peptide conjugate, Ultra FLT prototype (Tecan); assay type: physicochemical; conditions: 10 nM in 50 mM HEPES pH 7.5; mean of 10 measurements of 1 s
Protocol: It was intended to investigate whether there is a difference between the fluorescence lifetimes (FLTs) of the fluoresceine-peptide conjugates Fl-P1 and Fl-1. For this purpose, in each case 10 nM Fl-P1 and Fl-1 were dissolved in 50 mM HEPES pH 7.5. The fluorescence lifetimes (FLTs) were measured by means of an Ultra FLT prototype (Tecan). In each case, 10 measurements of 1 s each were averaged.

Sequence of PDE1b phosphodiesterase (Q01064 whole entry): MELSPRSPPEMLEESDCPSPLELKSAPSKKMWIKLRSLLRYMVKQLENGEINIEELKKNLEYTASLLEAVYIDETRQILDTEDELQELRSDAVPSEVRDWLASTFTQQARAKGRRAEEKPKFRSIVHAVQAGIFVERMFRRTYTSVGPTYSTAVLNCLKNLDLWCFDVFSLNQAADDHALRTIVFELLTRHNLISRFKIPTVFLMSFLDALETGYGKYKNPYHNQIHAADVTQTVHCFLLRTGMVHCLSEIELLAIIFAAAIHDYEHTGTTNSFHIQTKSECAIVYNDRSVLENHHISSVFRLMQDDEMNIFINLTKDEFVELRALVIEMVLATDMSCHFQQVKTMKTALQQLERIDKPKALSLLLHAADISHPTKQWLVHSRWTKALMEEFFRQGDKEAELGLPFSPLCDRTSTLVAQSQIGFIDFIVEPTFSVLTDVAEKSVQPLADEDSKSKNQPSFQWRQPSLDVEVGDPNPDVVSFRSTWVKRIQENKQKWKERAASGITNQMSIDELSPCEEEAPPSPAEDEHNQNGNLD

Compound | differentiation of phosphorylated and non-phosphorylated form by means of FLT [2] | fluorescence lifetime (FLT) [3] | also measured
Nc1ncnc2c1nc(SCCNC(=S)Nc1ccc(-c3c4ccc(=O)cc-4oc4cc(O)ccc34)c(C(=O)O)c1)n2C1OC2COP(=O)(O)OC2C1O (stereo not shown) [Fl-cAMP, 8-fluo-cAMP] |  |  | fluorescence lifetime at start of PDE1b reaction (PDE1b phosphodiesterase; 1 μM Fl-cAMP, start of reaction): approx. 3500 ps; fluorescence lifetime after PDE1b reaction (conversion to Fl-AMP) (PDE1b phosphodiesterase; within 100 minutes of reaction): approx. 3350 ps
Evoblue30-Ttds(Spacer)-IFTR-COOH [FJ24] |  |  | fluorescence lifetime [1]: 2194±18 ps
fluoresceine-C6-LRRASLGCONH2 [Fl-kemptide] | improves when the pH increases from 6.0 to 9.5 |  | 
fluoresceine-C6-LRRApSLGCONH2 [Fl-P-kemptide] | improves when the pH increases from 6.0 to 9.5 |  | 
fluoresceine-C6-TEGQYQPQP-COOH ({fluorescein-C6}-TEGQYQPQP-OH) [Fl-1] |  | 3600 ps | 
fluoresceine-C6-TEGQYpQPQP-COOH [Fl-P1] |  | 3880 ps | 
